# Values of other authors, collected in paper PMC3000440.
# What was measured:
# IGF-IR (Homo sapiens) = IGF-IR (Homo sapiens) (UniProt P08069)
# EGFR (Homo sapiens) = EGFR (Homo sapiens) (UniProt P00533)
# Met (Homo sapiens) = Met (Homo sapiens) (UniProt P08581)
# IGF-I (Homo sapiens) = IGF-I (Homo sapiens) (UniProt P05019)
# Chain of UniProt P05019 (P05019 49-118): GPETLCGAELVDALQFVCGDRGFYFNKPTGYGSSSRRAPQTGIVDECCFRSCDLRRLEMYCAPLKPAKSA
# Chain of UniProt P08581 (P08581 25-932): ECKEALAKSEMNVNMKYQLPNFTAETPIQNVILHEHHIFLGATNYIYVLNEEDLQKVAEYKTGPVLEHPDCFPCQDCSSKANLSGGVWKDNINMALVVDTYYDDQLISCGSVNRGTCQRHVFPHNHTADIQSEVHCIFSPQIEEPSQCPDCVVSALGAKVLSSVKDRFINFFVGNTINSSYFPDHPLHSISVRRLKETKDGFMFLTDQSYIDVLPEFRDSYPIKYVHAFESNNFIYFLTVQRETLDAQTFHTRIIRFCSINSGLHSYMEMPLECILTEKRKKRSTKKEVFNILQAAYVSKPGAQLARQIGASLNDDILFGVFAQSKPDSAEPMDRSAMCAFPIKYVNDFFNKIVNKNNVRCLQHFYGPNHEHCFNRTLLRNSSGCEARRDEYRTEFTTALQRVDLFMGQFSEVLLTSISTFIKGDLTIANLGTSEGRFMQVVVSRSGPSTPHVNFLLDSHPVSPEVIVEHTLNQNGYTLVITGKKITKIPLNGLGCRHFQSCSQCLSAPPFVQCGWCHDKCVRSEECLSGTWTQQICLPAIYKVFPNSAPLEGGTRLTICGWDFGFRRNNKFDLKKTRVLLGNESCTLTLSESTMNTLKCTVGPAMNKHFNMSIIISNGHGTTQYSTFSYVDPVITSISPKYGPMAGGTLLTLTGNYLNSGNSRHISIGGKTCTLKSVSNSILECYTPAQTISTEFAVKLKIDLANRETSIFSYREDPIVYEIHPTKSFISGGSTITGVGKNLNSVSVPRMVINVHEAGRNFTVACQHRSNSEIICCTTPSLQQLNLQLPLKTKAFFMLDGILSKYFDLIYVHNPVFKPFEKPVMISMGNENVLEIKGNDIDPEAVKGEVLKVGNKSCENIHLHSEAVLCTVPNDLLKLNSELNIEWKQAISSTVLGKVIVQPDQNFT
# Chain of UniProt P08069 (P08069 31-736, chain 1 of 2): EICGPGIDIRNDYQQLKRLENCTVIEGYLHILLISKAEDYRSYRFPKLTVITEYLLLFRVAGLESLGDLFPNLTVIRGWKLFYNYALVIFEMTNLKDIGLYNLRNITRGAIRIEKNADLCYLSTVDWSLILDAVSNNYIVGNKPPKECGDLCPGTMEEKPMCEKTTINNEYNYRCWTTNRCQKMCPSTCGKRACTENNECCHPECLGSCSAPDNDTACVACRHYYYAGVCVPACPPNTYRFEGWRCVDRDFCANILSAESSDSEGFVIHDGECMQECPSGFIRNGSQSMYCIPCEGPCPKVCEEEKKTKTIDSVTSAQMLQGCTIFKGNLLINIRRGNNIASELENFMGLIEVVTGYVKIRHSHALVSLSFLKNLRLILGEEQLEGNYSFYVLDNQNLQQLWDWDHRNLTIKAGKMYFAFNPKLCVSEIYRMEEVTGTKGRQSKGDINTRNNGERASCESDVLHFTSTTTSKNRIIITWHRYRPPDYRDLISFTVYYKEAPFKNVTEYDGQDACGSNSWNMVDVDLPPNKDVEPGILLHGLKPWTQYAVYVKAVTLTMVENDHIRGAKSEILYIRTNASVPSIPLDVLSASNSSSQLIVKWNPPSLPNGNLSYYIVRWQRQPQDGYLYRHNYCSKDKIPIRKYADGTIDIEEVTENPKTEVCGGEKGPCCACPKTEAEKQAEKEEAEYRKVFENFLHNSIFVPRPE
# Chain of UniProt P08069 (P08069 741-935, chain 2 of 2): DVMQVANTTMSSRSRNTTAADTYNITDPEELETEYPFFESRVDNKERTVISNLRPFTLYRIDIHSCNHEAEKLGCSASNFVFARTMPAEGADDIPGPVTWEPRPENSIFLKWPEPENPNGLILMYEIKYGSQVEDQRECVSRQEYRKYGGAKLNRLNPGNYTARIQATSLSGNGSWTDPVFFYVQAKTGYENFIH
substance,measurement,setting,value
decorin (from UniProt P07585),Kd,IGF-IR (Homo sapiens),1.5 nM
same,Kd,EGFR (Homo sapiens),87 nM
same,Kd,Met (Homo sapiens),1.5 nM
same,Kd,IGF-I (Homo sapiens),18 nM
